For series [1], the target named is T1, MBNL1-zf12 (Homo sapiens, UniProt Q9NR56 1-92).
T1 sequence: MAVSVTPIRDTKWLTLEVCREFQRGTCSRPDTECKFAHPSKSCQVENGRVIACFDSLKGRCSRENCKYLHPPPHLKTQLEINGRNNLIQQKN
The series is described as follows: BLI. For orientation: Biolayer interferometry detects binding as a change in optical thickness at a sensor tip.

The target in series [2] is T1, MBNL1-zf12. Nature of the series: NMR HSQC titration.
The target of series [3] is T1, MBNL1-zf12. Nature of the series: BLI. This is another data set of the same source.

Where two headings read alike, the source gives them in different places.

Regarding GUCUCGCUUUUCCCC (ssRNA) [hcTnT15], in the series with MBNL1-zf12 [1], binding was put at a Kd of 130 nM. Regarding CUCGCUUUUCCCC (ssRNA) [hcTnT13], in the series with MBNL1-zf12 [2], the binding result is recorded as “binds”. For GUCUCGCUGUUCCCC (ssRNA) [hcTnT15m (U103G)], the Kd (in general, the concentration at which binding is half-saturated) in the series with MBNL1-zf12 [3] stood at 500 nM.

The record behind these values is PMC5560242.
